In the supplement of paper PMC12042874:
± gives the uncertainty stated by the source.

Assay: amyloid nucleation score (Sup35N fusion, yeast selection) (log enrichment); library NNK3; higher = more nucleation; inactive = no reads after selection
In short: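 Sup35N was fused to peptides of 20 random codons and expressed in psi-negative yeast, which were induced with 100 μM copper sulfate for 24 hours and then grown on medium lacking adenine and uracil for 7 days at 30°C. Plasmid inserts from input and output were sequenced on Illumina. The nucleation score is the DiMSum log enrichment of output over input reads, centred on the mode score of non-aggregating sequences. Sequences with under 100 input reads were left out, and random libraries had three technical output replicates.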

Substance	amyloid nucleation score
YSNGASLVWLVNVKK	2.19 ± 0.083
PGNEEVGTNCMLTSNLTYVH	inactive
FFPMLIARMDALPRPVNLGY	inactive
LSLSM	inactive
VLVMISSWNYLMCIFFCINV	inactive
LFCVLP	inactive
TCVKMDRRSLAINALLSYYR	inactive
NLDRLWTNQGFAFWIRTYVV	inactive
DLHVWLGVKQ	inactive
PTFVPARSRYSLNVFNPLDE	inactive
HKPFNFYLGLPLTVV	inactive
RSKWRCRTLVDWRLQV	inactive
LSLSRRGYQLLLEASGRCYV	inactive
WPVNCMKGSSCNRELFNH	inactive
LMFYGFYLVLRGS	inactive
SPPKAAKCICAISSWSLWWT	inactive
RVFGLMYSQREMCTWSVRNR	0.446 ± 0.13
TRVIRLGGMALSFVFTIISC	inactive
NDHLSCVRMVLHSMGCHKWS	-0.181 ± 0.88
KLILKYCIRCQNGYDSARMS	-0.291 ± 0.5
MASVSREAVQYNAWESMAIY	inactive
RCFFNRMRTDVYSVDSKVSF	inactive
RLFYTRIDSTCIWLVLYAEK	inactive

Substance	amyloid nucleation score
SGYRIRVIHNMWAVGVKKRN	-0.487 ± 0.78
YPSGPHDCYCHTLYEFPFFL	inactive
NASNHSVSTRCVVDRG	inactive
SLSSSWFFNISSNADMPCYN	inactive
VFTYCYVFHQVVSLRQARLR	inactive
SWIRRRPAVRLDRRMPRLAF	inactive
LKPLGDSADGRWQLLWNSAD	inactive
SNDCRVTVTVFSIGRDSYVL	2.28 ± 0.089
NFGQNCN	-0.48 ± 0.57
MSCICGKPTAVCI	inactive
IMKTYLLMLSFFRNPPMVVL	inactive
NSSLCYFENLTTAIFVMEWI	inactive
KRLIVVIFKQWPARGCTTHC	inactive
QQCVTLQIYTMFKLRDYPA	0.503 ± 0.24
LYSSNQLFDGGMSFWNDNII	inactive
IDGTCFARIFRCCIFYLR	inactive
SMNFLLLISMCNLWPSYAAL	1.36 ± 0.14
HTFDDSTCSYTWVYFHIWCI	inactive
LFNTRERRYMEWPTAWRLRR	inactive
VFTNGRSYISRMISYYKYCR	inactive
SRCWGDILPLNIQYLMR	inactive
FSMLWILSDYLSYSCNLVFY	inactive
ESSISTLFIFNMVGPQ	2.21 ± 0.068

Substance	amyloid nucleation score
RYPTDSVWGIGSGLVN	inactive
YTLVVQTSMVVFLRLYSGRY	inactive
DYTCACLRVRI	-0.047 ± 0.98
ESPNGFFGSMDVCVLPRGSV	inactive
GFEPRRYP	-0.646 ± 1.3
KTIGILLNCIGWFVVGLPGS	0.863 ± 0.21
VSMSMRYQDASGVTSCFTSL	inactive
HDYYFDTRDTIRVIL	inactive
RYFKIPF	inactive
NYVPQSGYNVDNVLNILTKL	inactive
FGKGRHWISAPSRWVRGDFG	inactive
CRYLICVGS	inactive
FMFNRGAAFNHFTGHTCITY	inactive
LCYTPRGNKFTHLKW	0.595 ± 0.18
GCFNSCILYVLRLSIASVVS	inactive
GLKCGFRPSSVINSYWSSQL	inactive
NPFLSCKNYGICSYVGTNVF	1.09 ± 0.096
LYHRAIGRSRQRENPSQKGG	-0.048 ± 0.39
PDYEHKVSLLEGKRAYLEHF	inactive
DFSKVNDQTADSYMWCSVDS	inactive
RDPWFLSMVVDLFGYLNWVM	0.338 ± 0.18
SVGFRYHVLRKSKWCVYIVE	inactive
ERSFAYDYDCSVCFTHAFAT	inactive

Substance	amyloid nucleation score
VSLTFVVCRALFLSFTW	inactive
PVGVMTVSDLLFDYFAFRSF	inactive
KDVRVWRLFRLD	inactive
DMQHPFDFKRQ	inactive
SGSLPMRTMLFP	inactive
YARYYGCGIWGWWFSNRSLL	inactive
SLCTSEYFHSTYRNITGLVL	inactive
LCLSSCWYTRGH	inactive
LQDKQCHVWDYASGIAYVVE	inactive
YARVMSVAMSWEDQNSTKKR	0.467 ± 0.19
IYYNHVVI	inactive
PFYFCGHSQYSWTAW	inactive
SVLWLVCMDCHPQKSVSCD	0.863 ± 0.25
HCSYEFNS	-0.001 ± 0.4
NPSTLYCGSLHSLVLRSFLI	inactive
AREYMI	inactive
SVVSCMWMWHLVRYKH	-0.509 ± 1.8
VNEFNGDGGSQLRQKQNPLF	inactive
RWSHDMSCE	inactive
LIKSSRLCLPKYTGVCNSHK	-0.189 ± 0.88
YVAYFSGIVLMHHSRDIQFP	0.496 ± 0.34
PINWECWDQELEGLHDMQAI	inactive
VASVIL	inactive

Substance	amyloid nucleation score
SCLHYVTVY	inactive
HWLFVVKMMKS	-0.093 ± 0.41
VVQSGRAFRCYRCSLEVQTE	inactive
ANIFGVNTFGESRKHSIARC	inactive
FLEKGLFSLDISFARDLAEA	inactive
MLQWVESLGGICITRSVLIL	inactive
IGLFNTNVWKCFDCDTPAMF	inactive
SYRIIEWCSLGKDNLDIRTG	inactive
SAGLKS	inactive
IFVGVSYVHFRLEH	1.8 ± 0.099
YTSEFVIAAWSLLFDDRYMS	inactive
VICFAARALVYC	inactive
FGAMGGCGNRWKFYQRFTDP	inactive
EPNVFSSLGILNINVVALWL	0.98 ± 0.2
NRYHRIIRDAIRKDYTVCSL	inactive
QCFKDRMWHGICREPVAKIG	inactive
RKIETLWVYIYRLFRLGEQV	inactive
QTISVYYFHVLWSEGCRMYA	inactive
VKPLSRY	inactive
MVVYKNYM	inactive
DPVEIRG	inactive
LSFTEY	inactive
QAQVDKCLLARFVGL	inactive

Substance	amyloid nucleation score
FGFIILDLTR	inactive
FFADGARVYFANHVSKAFWF	1.96 ± 0.083
FKNLGNTFGLTKRVCV	inactive
SMADHAESLNSSGSNRQQLG	inactive
RKRAGVMGTLSN	inactive
VLGNFSSFVAAKVARRS	inactive
FGAVVDYNFSN	-0.695 ± 0.96
VGLNQSLNRWPTSSSQHMGG	inactive
YFNLSEYGLCCYRGFRVYKS	1.23 ± 0.18
LRFNDYMC	inactive
CFASTRSGVILNYTMVVVDF	1.78 ± 0.098
VDNHPDFFLNLESVLINVDH	inactive
LIHVGRFTVRTKL	inactive
CKCVCNGAKDRFST	inactive
MNCDDAVDWCFII	inactive
ANRYNSITE	-0.765 ± 1.5
LFMYMMPQGPSVTANMELVI	-0.742 ± 1.1
LFVYVIQYVISVI	0.74 ± 0.14
SVARWSENGSTKSQYSP	inactive
KGLVYSELNYYLLSWY	inactive
RMTKTKI	inactive
VDFLCNPWVERINGYVWEVV	inactive
CTSAKIICHQSMRTRCTEQD	inactive

Substance	amyloid nucleation score
NHCYLLL	inactive
IFNLHWDTMLSIHMSIDALR	1.91 ± 0.1
SIIGGWCGNE	inactive
KTFCVVDTR	inactive
KVVIF	inactive
HSMQCNT	inactive
SFSLKPTDYIFIIVRSRRNP	inactive
LKARYYNYIASERSGCEFHK	inactive
IYALDNHGTCGRGHAFYNMV	inactive
CNWMIPASSP	inactive
SQFTFNCTIFNGL	2.65 ± 0.064
TCKWFFHHAIDCLRKRISME	inactive
TRQNWENNFLLWYGEVMS	inactive
SIGVTCAPNNLHGCLILYRF	inactive
TDPGILYMSCIRVMLGLFWD	inactive
YDPFYGNDQVPIQIVFLCFP	inactive
VVDYNKDQDGAMTASRGDRK	-0.726 ± 1.5
RLQNPTCAAPWCCIGKGVIR	0.538 ± 0.39
KRLVMWPRLRSRYWHKRAEQ	inactive
VLILFVCPNFVLGSGVLIGW	inactive
SGLKMCYLSTGEKSAHAGEV	inactive
